Source: IntAct's records for PubMed 33986552

B1: Mannose-1-phosphate guanylyltransferase regulatory subunit alpha (Homo sapiens), Q96IJ6-1 (parent)
chain: MLKAVILIGGPQKGTRFRPLSFEVPKPLFPVAGVPMIQHHIEACAQVPGMQEILLIGFYQPDEPLTQFLEAAQQEFNLPVRYLQEFAPLGTGGGLYHFRDQILAGSPEAFFVLNADVCSDFPLSAMLEAHRRQRHPFLLLGTTANRTQSLNYGCIVENPQTHEVLHYVEKPSTFISDIINCGIYLFSPEALKPLRDVFQRNQQDGQLEDSPGLWPGAGTIRLEQDVFSALAGQGQIYVHLTDGIWSQIKSAGSALYASRLYLSRYQDTHPERLAKHTPGGPWIRGNVYIHPTAKVAPSAVLGPNVSIGKGVTVGEGVRLRESIVLHGATLQEHTCVLHSIVGWGSTVGRWARVEGTPSDPNPNDPRARMDSESLFKDGKLLPAITILGCRVRIPAEVLILNSIVLPHKELSRSFTNQIIL

Variants of: B1
Conditions: with GMPPB

Question: Which “effect of a mutation on the interaction” value does the source give for E396R here?
Answer: Its value is “with no effect”.

Question: Which “effect of a mutation on the interaction” value does the source give for E85K;Q247A here?
Answer: The value was “with no effect”.

Question: How did the “effect of a mutation on the interaction” value turn out when R318E was run?
Answer: The value was “disrupting interaction”.

Question: With W350A;R352A as the variant, how does the “effect of a mutation on the interaction” value read?
Answer: The value was “disrupting interaction”.
